Assays:
[1] = molecular target: BG505 DS-SOSIP ∆88 Env trimer (glycan N88 removed) (HIV-1 strain BG505); assay: SPR
[2] = molecular target: His-tagged FP8_v1 (HIV-1); assay: BLI
[3] = molecular target: His-tagged FP8_v1 (HIV-1); assay: SPR

B1: VRC34.05 Fab (Fab, V domains shown)
VH: SQYLAQSGSEVKKPGASVKVSCRLHGDKFGAHYIHWVRQAPGQGLEWLGFFHPGTGDAVSAQKFQGRISLTRDTSISTGYLEVRRLSSDDTAVYYCARDKTYSDEATGMDIWGQGTTVIVSS
VL: DIKLTQSPAFLSASVGERVTFTCRASQDIRHELVWYQQKPGRGPKLLIYYGSTLEGGVPSRFSGRRSGTEFTVTISSLQPEDVGTYYCQQLNSFPLTFGGGTTVDIR
- fold decrease of affinity against the BG505 trimer with glycan N88 [1]: 100 fold

B2: VRC34-pI3 P33A (heavy chain) mutant antibody (antibody, V domains shown)
VH: QEVLVQSGAEVKKPGASVKVSCKAFGYTFTGNAMHWVRQAPGQGLEWMGWINPHSGDTTTAQKFQGRVYMTRDKSINTAYLDVTRLTSDDTAIYYCARDKYYGNEAVGMDVWGQGTTVTVSS
VL: DIQLTQSPSFLSASVGDRVTITCRASQGISNELAWYQQKPGKAPNLLIYYASTLQSGVPSRFSASGSGTHFTLTISSLQPEDFATYFCQHMSSYPLTFGGGTKVEIK
- Kd [2]: 60 nM

B3: VRC34.07 Fab (Fab, V domains shown)
VH: SQYLAQPGAEVAKPGASVKVSCKVHGDNFRGHYLHWVRQAPGQGLQWIGGINPFSGEAAYGKRFEGRLRLTRDTSVNTAYMELAKLTPDDTAVYFCARDKTYNDEFTAMDIWGHGTTVIVSS
VL: DIKLTQSPAFLSASVGERVTFTCRASQDISHDLVWFQQKAGRAPSLLMFYGSTLERGVPPRFSGRRSGTEFTVTIDSLQPEDVGTYYCQQLSAFPLTFGGGTTVDIK
- Kd [3]: 0.2 nM
